Each block holds one binder with its values, some of them ahead of it.
Columns and labels:
[1] = molecular target: T1, GM-CSF receptor, cognate for the human GM-CSF constructs (GM-CSF-Ra, R&D Systems) (UniProt P15509 23-320); assay: SPR (Biacore), fusion captured on anti-human F(ab)2, 100 nM GM-CSF receptor injected
T1 construct: also called cognate GM-CSF receptor
T1 sequence (looked up): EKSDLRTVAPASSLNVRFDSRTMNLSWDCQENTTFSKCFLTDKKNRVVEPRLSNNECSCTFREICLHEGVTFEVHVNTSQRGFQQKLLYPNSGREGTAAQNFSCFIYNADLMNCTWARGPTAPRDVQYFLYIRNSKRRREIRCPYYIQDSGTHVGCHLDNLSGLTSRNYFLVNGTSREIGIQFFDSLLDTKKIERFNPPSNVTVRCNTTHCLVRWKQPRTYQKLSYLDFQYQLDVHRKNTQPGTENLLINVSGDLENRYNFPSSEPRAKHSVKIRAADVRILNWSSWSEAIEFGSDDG

[2] = molecular target: T2, IL-15-Rα-hFc (R&D Systems) (UniProt Q13261 31-205); assay: SPR (Biacore), fusion captured from supernatant on anti-human F(ab)2, 100 nM IL-15-Rα injected
T2 construct: Bought reagent; not shown: human Fc (hFc)

[3] = molecular target: T3, IL-2-Rβ (IL-2 receptor β chain, R&D Systems) (UniProt P14784 27-239); assay: SPR (Biacore), fusion captured from supernatant on anti-human F(ab)2, 100 nM IL-2-Rβ injected
T3 construct: also called IL-2-sRβ
T3 sequence (looked up): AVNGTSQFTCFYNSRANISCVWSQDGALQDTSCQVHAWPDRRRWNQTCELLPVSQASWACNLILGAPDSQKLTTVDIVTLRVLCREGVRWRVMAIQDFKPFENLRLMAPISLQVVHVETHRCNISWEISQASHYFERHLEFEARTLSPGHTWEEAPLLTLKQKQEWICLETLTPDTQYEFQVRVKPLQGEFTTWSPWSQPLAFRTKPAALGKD

[4] = molecular target: T4, Human serum albumin (HSA), Jackson ImmunoResearch catalog #009-000-051 (human, UniProt P02768 25-609); assay: SPR (Biacore), fusion captured from supernatant on anti-human F(ab)2, 1000 nM HSA injected
IL-6 (R&D Systems) [5] = molecular target: T5, IL-6 (R&D Systems) (UniProt P05231 30-212, limits assumed); assay: SPR (Biacore), fusion captured on anti-human F(ab)2, 100 nM IL-6 injected alone or with 1000 nM HSA
IL-6 (R&D Systems) [6] = molecular target: T5, IL-6 (R&D Systems); assay: SPR (Biacore), fusion captured on anti-human F(ab)2, IL-6 alone injected
[7] = molecular target: T4, Human serum albumin (HSA), Jackson …; assay: SPR (Biacore), fusion captured on anti-human F(ab)2, 1000 nM HSA injected alone or with 100 nM G-CSF-Rα
[8] = molecular target: T3, IL-2-Rβ (IL-2 receptor β chain, R&D …); assay: SPR (Biacore), fusion captured on anti-human F(ab)2, 100 nM IL-2-sRβ injected, with or without premixed 200 nM IL-15
[9] = molecular target: T3, IL-2-Rβ (IL-2 receptor β chain, R&D …); assay: as above; remark: listed apart in the source
[10] = molecular target: T3, IL-2-Rβ (IL-2 receptor β chain, R&D …); assay: as above; remark: listed apart in the source

binding result [1]: binds
B1: CA645/GM-CSFCH1 (human) (CA645 Fab with human GM-CSF at the C-terminus of CH1, for comparison) (Fab, V domains shown)
VH: EVQLLESGGGLVQPGGSLRLSCAVSGIDLSNYAINWVRQAPGKGLEWIGIIWASGTTFYATWAKGRFTISRDNSKNTVYLQMNSLRAEDTAVYYCARTVPGYSTAPYFDLWGQGTLVTVSS
VL: DIQMTQSPSSVSASVGDRVTITCQSSPSVWSNFLSWYQQKPGKAPKLLIYEASKLTSGVPSRFSGSGSGTDFTLTISSLQPEDFATYYCGGGYSSISDTTFGGGTKVEIKR
notes: also called constant domain (CH1) fusion of the GM-CSF peptide (human)

binding result [2]: binds | binding result [3]: binds | binding result [4]: binds
B2: CA645/IL-15Fwk3 (CA645 Fab with human IL-15 inserted into framework 3 of the VH domain, original linkers) (Fab)
heavy: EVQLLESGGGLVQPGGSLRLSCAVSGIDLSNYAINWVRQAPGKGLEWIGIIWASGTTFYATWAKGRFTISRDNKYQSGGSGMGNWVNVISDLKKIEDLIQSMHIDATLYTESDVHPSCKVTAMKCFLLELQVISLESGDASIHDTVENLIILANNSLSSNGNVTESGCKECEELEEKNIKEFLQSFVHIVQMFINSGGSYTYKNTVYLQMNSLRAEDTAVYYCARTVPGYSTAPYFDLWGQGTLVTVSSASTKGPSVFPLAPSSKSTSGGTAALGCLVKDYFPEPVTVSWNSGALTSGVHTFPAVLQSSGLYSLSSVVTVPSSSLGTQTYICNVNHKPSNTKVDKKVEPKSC
light: DIQMTQSPSSVSASVGDRVTITCQSSPSVWSNFLSWYQQKPGKAPKLLIYEASKLTSGVPSRFSGSGSGTDFTLTISSLQPEDFATYYCGGGYSSISDTTFGGGTKVEIKRTVAAPSVFIFPPSDEQLKSGTASVVCLLNNFYPREAKVQWKVDNALQSGNSQESVTEQDSKDSTYSLSSTLTLSKADYEKHKVYACEVTHQGLSSPVTKSFNRGEC
notes: Tested as HEK293 supernatant diluted 1 in 5, captured on anti-human F(ab)2; also called CA645/IL-15 antibody fusion protein

binding result (IL-6 (R&D Systems) [5]): binds
B3: CA645/VHH15Fwk3 (CA645 Fab with anti-IL-6 camelid VHH15 inserted into framework 3 of the VH domain) (bispecific antibody)
heavy: EVQLLESGGGLVQPGGSLRLSCAVSGIDLSNYAINWVRQAPGKGLEWIGIIWASGTTFYATWAKGRFTISRDNSGGGGSGGGGSQVQLVESGGGSVQAGGSLRLSCVAASGYTGCTYDMRWYRQAPGKEREFVSGIDSDGRATYADSVKGRFTISQSNAKIAVYLQMDSLKLEDTAMYYCNLQCLRYPGEYYWGQGTQVTVSSGGGGSGGGGSKNTVYLQMNSLRAEDTAVYYCARTVPGYSTAPYFDLWGQGTLVTVSSASTKGPSVFPLAPSSKSTSGGTAALGCLVKDYFPEPVTVSWNSGALTSGVHTFPAVLQSSGLYSLSSVVTVPSSSLGTQTYICNVNHKPSNTKVDKKVEPKSC
light: DIQMTQSPSSVSASVGDRVTITCQSSPSVWSNFLSWYQQKPGKAPKLLIYEASKLTSGVPSRFSGSGSGTDFTLTISSLQPEDFATYYCGGGYSSISDTTFGGGTKVEIKRTVAAPSVFIFPPSDEQLKSGTASVVCLLNNFYPREAKVQWKVDNALQSGNSQESVTEQDSKDSTYSLSSTLTLSKADYEKHKVYACEVTHQGLSSPVTKSFNRGEC
notes: also called CA645/VHH15 antibody fusion protein

binding result [1]: binds
B4: CA645/GM-CSFFwk3 (human) (CA645 Fab with human GM-CSF inserted into framework 3 of the VH domain) (Fab)
heavy: not shown
light: DIQMTQSPSSVSASVGDRVTITCQSSPSVWSNFLSWYQQKPGKAPKLLIYEASKLTSGVPSRFSGSGSGTDFTLTISSLQPEDFATYYCGGGYSSISDTTFGGGTKVEIKRTVAAPSVFIFPPSDEQLKSGTASVVCLLNNFYPREAKVQWKVDNALQSGNSQESVTEQDSKDSTYSLSSTLTLSKADYEKHKVYACEVTHQGLSSPVTKSFNRGEC
notes: also called CA645/hGM-CSF antibody fusion protein

binding result (IL-6 (R&D Systems) [6]): no binding (tested: 100 nM)
B5: CA645/VHH6Fwk3 (CA645 Fab with camelid VHH6 inserted into framework 3 of the VH domain) (bispecific antibody)
heavy: EVQLLESGGGLVQPGGSLRLSCAVSGIDLSNYAINWVRQAPGKGLEWIGIIWASGTTFYATWAKGRFTISRDNSGGGGSGGGGSDVQFVESGGGSVHAGGSLRLNCATSGYIYSTYCMGWFRQAPGKEREGVAHIYTNSGRTYYADSVKGRFTISQDNAKNTVYLQMNSLKPEDTAIYYCAARPSIRCASFSATEYKDWGQGTQVTVSSGGGGSGGGGSKNTVYLQMNSLRAEDTAVYYCARTVPGYSTAPYFDLWGQGTLVTVSSASTKGPSVFPLAPSSKSTSGGTAALGCLVKDYFPEPVTVSWNSGALTSGVHTFPAVLQSSGLYSLSSVVTVPSSSLGTQTYICNVNHKPSNTKVDKKVEPKSC
light: DIQMTQSPSSVSASVGDRVTITCQSSPSVWSNFLSWYQQKPGKAPKLLIYEASKLTSGVPSRFSGSGSGTDFTLTISSLQPEDFATYYCGGGYSSISDTTFGGGTKVEIKRTVAAPSVFIFPPSDEQLKSGTASVVCLLNNFYPREAKVQWKVDNALQSGNSQESVTEQDSKDSTYSLSSTLTLSKADYEKHKVYACEVTHQGLSSPVTKSFNRGEC
notes: also called CA645/VHH6 antibody fusion protein

binding result [7]: binds
B6: CA645/G-CSFFwk3 (CA645 Fab with human G-CSF inserted into framework 3 of the VH domain) (Fab)
heavy: EVQLLESGGGLVQPGGSLRLSCAVSGIDLSNYAINWVRQAPGKGLEWIGIIWASGTTFYATWAKGRFTISRDNSGGGGSATPLGPASSLPQSFLLKCLEQVRKIQGDGAALQEKLVSECATYKLCHPEELVLLGHSLGIPWAPLSSCPSQALQLAGCLSQLHSGLFLYQGLLQALEGISPELGPTLDTLQLDVADFATTIWQQMEELGMAPALQPTQGAMPAFASAFQRRAGGVLVASHLQSFLEVSYRVLRHLAQPSGGGGKNTVYLQMNSLRAEDTAVYYCARTVPGYSTAPYFDLWGQGTLVTVSSASTKGPSVFPLAPSSKSTSGGTAALGCLVKDYFPEPVTVSWNSGALTSGVHTFPAVLQSSGLYSLSSVVTVPSSSLGTQTYICNVNHKPSNTKVDKKVEPKSC
light: DIQMTQSPSSVSASVGDRVTITCQSSPSVWSNFLSWYQQKPGKAPKLLIYEASKLTSGVPSRFSGSGSGTDFTLTISSLQPEDFATYYCGGGYSSISDTTFGGGTKVEIKRTVAAPSVFIFPPSDEQLKSGTASVVCLLNNFYPREAKVQWKVDNALQSGNSQESVTEQDSKDSTYSLSSTLTLSKADYEKHKVYACEVTHQGLSSPVTKSFNRGEC
notes: also called CA645/G-CSF antibody fusion protein

binding result [8]: binds
B7: CA645/IL-2Fwk3 (CA645 Fab with human IL-2 inserted into framework 3 of the VH domain) (Fab)
heavy: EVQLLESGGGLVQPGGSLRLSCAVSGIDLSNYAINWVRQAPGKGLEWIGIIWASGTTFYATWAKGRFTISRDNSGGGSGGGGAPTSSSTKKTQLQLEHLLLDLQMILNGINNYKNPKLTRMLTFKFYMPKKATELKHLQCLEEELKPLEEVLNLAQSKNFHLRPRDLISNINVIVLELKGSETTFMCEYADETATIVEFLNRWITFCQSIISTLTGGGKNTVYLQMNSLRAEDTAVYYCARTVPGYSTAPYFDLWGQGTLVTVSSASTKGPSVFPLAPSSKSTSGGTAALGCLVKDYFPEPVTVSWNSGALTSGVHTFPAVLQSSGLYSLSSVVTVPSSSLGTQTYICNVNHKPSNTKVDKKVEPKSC
light: DIQMTQSPSSVSASVGDRVTITCQSSPSVWSNFLSWYQQKPGKAPKLLIYEASKLTSGVPSRFSGSGSGTDFTLTISSLQPEDFATYYCGGGYSSISDTTFGGGTKVEIKRTVAAPSVFIFPPSDEQLKSGTASVVCLLNNFYPREAKVQWKVDNALQSGNSQESVTEQDSKDSTYSLSSTLTLSKADYEKHKVYACEVTHQGLSSPVTKSFNRGEC
notes: also called CA645/IL-2 antibody fusion protein

binding result [9]: binds
B8: CA497/IL-15Fwk3 (anti-IL-17A CA497 Fab with human IL-15 inserted into framework 3 of the VH domain) (Fab)
heavy: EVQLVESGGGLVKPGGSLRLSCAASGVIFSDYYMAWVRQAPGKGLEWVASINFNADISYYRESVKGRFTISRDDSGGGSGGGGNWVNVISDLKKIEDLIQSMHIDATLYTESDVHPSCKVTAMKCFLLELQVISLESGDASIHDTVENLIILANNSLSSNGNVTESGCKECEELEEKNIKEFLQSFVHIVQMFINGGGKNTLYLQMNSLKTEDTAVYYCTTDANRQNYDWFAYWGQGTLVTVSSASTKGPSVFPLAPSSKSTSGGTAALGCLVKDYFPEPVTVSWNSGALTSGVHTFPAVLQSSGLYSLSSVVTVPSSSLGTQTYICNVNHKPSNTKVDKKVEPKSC
light: AIQLTQSPSSLSASVGDRVTITCKASESVSSSMYSYMHWYQQKPGKAPKLLIYRASNLESGVPSRFSGSGSGTDFTLTISSLQPEDFATYYCQQSWTAPRTFGQGTKVEIKRTVAAPSVFIFPPSDEQLKSGTASVVCLLNNFYPREAKVQWKVDNALQSGNSQESVTEQDSKDSTYSLSSTLTLSKADYEKHKVYACEVTHQGLSSPVTKSFNRGEC
notes: also called CA497/IL-15 antibody fusion protein

binding result [10]: binds
B9: CA240/IL-15Fwk3 (anti-IL-6 CA240 Fab with human IL-15 inserted into framework 3 of the VH domain) (Fab)
heavy: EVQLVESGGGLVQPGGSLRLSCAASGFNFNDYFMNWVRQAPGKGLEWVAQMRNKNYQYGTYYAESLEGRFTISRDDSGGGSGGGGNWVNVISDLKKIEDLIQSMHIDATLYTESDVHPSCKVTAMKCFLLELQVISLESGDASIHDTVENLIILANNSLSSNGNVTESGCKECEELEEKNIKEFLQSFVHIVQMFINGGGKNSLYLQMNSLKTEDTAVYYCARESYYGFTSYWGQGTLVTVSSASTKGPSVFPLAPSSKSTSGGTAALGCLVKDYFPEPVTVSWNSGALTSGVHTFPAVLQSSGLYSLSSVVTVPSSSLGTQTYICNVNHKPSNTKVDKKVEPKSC
light: DIQMTQSPSSLSASVGDRVTITCQASQDIGISLSWYQQKPGKAPKLLIYNANNLADGVPSRFSGSGSGTDFTLTISSLQPEDFATYYCLQHNSAPYTFGQGTKLEIKRTVAAPSVFIFPPSDEQLKSGTASVVCLLNNFYPREAKVQWKVDNALQSGNSQESVTEQDSKDSTYSLSSTLTLSKADYEKHKVYACEVTHQGLSSPVTKSFNRGEC
notes: also called CA240/IL-15 antibody fusion protein
